In the DeepSol protein solubility set:

test: soluble on expression in E. coli; label from the status in PepcDB or PDB records

Sequence | soluble on expression in E. coli
MSKWIILSDNHKETGILYHIYELHKDADKFLHLGDSEFSYNDTELSLYQRVKGNCDFYPEFLEEEITEENGIRAFYTHGHLYQVNQTRMKLAEKAKELGCLFAFYGHTHVAKYEQIGGIHVINPGSISQSRSQIEETFAELVYKEDENTIILNFRNRENQIIETVKIEFLEHHHHHH | soluble
MSFTVIIPARFASSRLPGKPLADIKGKPMIQHVFEKALQSGASRVIIATDNENVADVAKSFGAEVCMTSVNHNSGTERLAEVVEKLAIPDNEIIVNIQGDEPLIPPVIVRQVADNLAKFNVNMASLAVKIHDAEELFNPNAVKVLTDKDGYVLYFSRSVIPYDRDQFMNLQDVQKVQLSDAYLRHIGIYAYRAGFIKQYVQWAPTQLENLEKLEQLRVLYNGERIHVELAKEVPAVGVDTAEDLEKVRAILAANGSHHHHHH | soluble
MALVNEHFLKLPGSYLFSDIAKKVNTFKITHPKQDIIRLGIGDVTQPLPKACIEAMHKAVEELASKDTFRGYGPEQGYDFLIEAIIKNDFAPRGIHFSPSEIFVNDGAKSDTGNIGDILRHDNSVGVTDPIYPVYIDSNVMCGRAGVLEEGTGKWSNVTYMPCTSENDFIPEIPDKRIDIVYLCYPNNPTGTTLTKPELKKWVDYALANDTLILFDAAYEAYIQDADVPHSIYEIKGAKKCAIEFRSFSKTAGFTGVRCGYTVVPKELTAATLEGDRIPLNKLWNRRQCTKFNGTSYITQRAAEAVYSTEGKAQIKETINYYMSNAKIMKEGLEATGLKVYGGVNAPYLWVKTPNGLSSWRFFEQMLYEANVVGTPGVGFGPSGEGYIRLTAFGDHNDCMEAMRRIKNWL | not soluble
MSLGRFQTLDYEIPESMQRSWQDIVNLLAQIADVPTTLIMRVHQNHIEVNTSSDTQGNPYKAGDKEDLGHGLYCEHVIETKSQLVVPDALADEKWSNNPDIKLGMLSYCGLPLFWPNGETFGTICMLDSKANEYSETYRQLLNTFKDSIEAQLAVVYQQYKLLRLNSELKNRVENRTTDLAQLSFSLTQEIDRRKAAERQVNYQKTHDQGTGFLNRAALEAVVEDTLQSLEHGHQSLIVINVGFSNARSIQTRYGFEAFDEILKEFRKRLGMNDSNYFITGRPSSNDLVLLLWGEDADSKLHNLLDKITNISVGNFYINDTEVHLHSYVGVVQAHRSSSAKQLLQNACYAMLLCKESGEAYSYFCESHTHEGHHHHHH | soluble
MAHHHHHHMEVAFTISPGERQHVEYLADLFAIILAIEKVEKATLRDIITQEQYSSTITRLLDKYKSTVTYLEQSRNPFYSTIDSFWENYGSRCPAARTRIQLSFDDAKQQQQQQQDSDVNGTVDPRLVLECGQHFITLMDSLKLQQTAVDQLYTLLADLVRGLQRLGVTDQSFFHRLTTWKEKFDTMNASDELSERDTREFAFVLECGYQAFHAYLSESSARRPKA | not soluble
MKKVIFKPLKSYPVKMAMIALTLLAASPITHAEESKMKNATITVTATGENQATPDMAIINLAVVTQDKTAQKALADNNKSMNDIINAFKNNGIQANDLQTSGLSIYQSNPNKDHEKKNNGIVYHVSNSLTVRIRDLSNAGKIFDQAMALGVNSVHGITFTNANTKPFYQEARKKAIAEAIEKAKTIAEAADLKLGKIIKINENDDNYYSRPHLMSKAVNANYTDTTFSSGELNYSVSVTIVFAID | not soluble
MAHHHHHHMGTLEAQTQGPGSMNIDAISIGSNPPEDVNVIIEVPVGGQPIKYEMDKKAGALIVDRFLYTPMTYPGNYGFVPHTLSEDGDPIDVLVCNTRPLIPGCVINVRPIGVLVMEDNSGKDEKIIAVPSPHLTRRYEKIHDYTDMPEITLKQIAHFFEHYKDLEPGKWVKIGDWGDEDYARKFIVEAIERAKGK | soluble
MRPTDTSNFAPAEISKRKVRRVKANGRERARMHGLNNALDMLREYIPITTQHQKLSKIETLRLARNYIDALQRMLQTNEQPTPLEYAHTLANGLSQTTTNMLANLLQVQPRQLLPPSQFDIFSDPSHHQLHPSHPPPHSSFSSSSPSSSCSPPQYYYSPTQPSAAPLQGSCDPQYQQMYHQHSHQNTFNYSP | not soluble
MGSDKIHHHHHHMNTRLKDTSGHSPIDPRILDEAAAWLMQLHASTVTDMERNAWEQWRLRSPQHRQAWERAEQLMNKMGGLPPALSMAALTHPGGNNRRAAIKKLALLMTALPASWAAWRVTPWEAWMAEYRTMVSEQREIELADGSQVRLNTATSIDVRFNAVQRLIVLHTGEILIQTAADNAVTPRPFQVLTAEGRLYALGTRFTVRQGEERSHVAVFDGAVAIHPKSGDSGVAQVLHAGNKTVFTAEAIEVSRPADDTDIAWTQGMLLADKMHLTDFTDELSRYRQGIVRCDPVLADLRISGAFPIRDTDRTLAMLQATYPVRIVYRTPYWVTLVPR | not soluble
MINHKIFPTADAVVKSLADDMLAYSQQGQPVHISLSGGSTPKMLFKLLASQPYANDIQWKNLHFWWGDERCVAPDDAESNYGEANALLFSKINMPAQNIHRILGENEPQAEAERFAQAMAHVIPTENGTPVFDWILLGVGADGHTASLFPGQTDYADANLSVVASHPESGQLRVSKTAKVLQAAKRISYLVLGAGKAEIVEQIHTTPAEQLPYPAAKIHSTSGVTEWYLDSDAAAKIA | soluble
ELALWSPEVKIVELVKDCKGLGFSILDYQDPLDPTRSVIVIRSLVADGVAERSGGLLPGDRLVSVNEYCLDNTSLAEAVEILKAVPPGLVHLGIC | soluble
MAPTLLELTASIVSSHAAVSELSTEELVQEIQKVHATLQQLEGGAAAPEVAAEEAKAPAMTLKKAFQADQVCCMICGKGGMKTLTRHLAQVHQMKPGEYRKQFNIPSSQPLTAKKFSEARKQMAKDRGLAENLAKARAVRAAKIQEKKAAAEKPAKTKATRAKKATA | not soluble
SLRTEQEMMDVILTIAKKEERIRAVYMNGSRTNSNVPKDLFQDYDIVYVVTDIAPFIQEQQWLKKFGEPLMIQEPDQLDAGIGVNRDFSRRYAFLMLFTDGNRIDLTLQTKETMREVYENDTLTVPLLDKDHCLPPIPPPSDSDYHVKEPTEGEFISCTNNFWWCLQNVAKGIWRDELPYAKQMFELTTRASLDEMVNWWIGLENDFQLSTGKLGKYFKKHLPPPYWAMYEATYANSDYEQMWESIFIACDLFRTLAKDVAAACSFTYPETDDRNMTDYLHRVKNLSADATDM | soluble
MSDKIIHLTDDSFDTDVLKADGAILVDFWAEWCGPIEESDDRRYDLVGPCKMIAPILDEIADEYQGKLTVAKLNIDQNPGTAPKYGIRGIPTLLLFKNGEVAATKVGALSKGQLKEFLDANLA | soluble
GSHMTALDWRSALTADEQRSVRALVTATTAVDGVAPVGEQVLRELGQQRTEHLLVAGSRPGGPIIGYLNLSPPRGAGGAMAELVVHPQSRRRGIGTAMARAALAKTAGRNQFWAHGTLDPARATASALGLVGVRELIQMRRPLRDIPEPTIPDGVVIRTYAGTSDDAELLRVNNAAFAGHPEQGGWTAVQLAERRGEAWFDPDGLILAFGDSPRERPGRLLGFHWTKVHPDHPGLGEVYVLGVDPAAQRRGLGQMLTSIGIVSLARRLGGRKTLDPAVEPAVLLYVESDNVAAVRTYQSLGFTTYSVDTAYALAGTDN | soluble
MRLIKVIITSQKEYSMKKLLSLSAITLSVLAPSAFAAQEVNVYSYRQPFLIEPMFAEFTKETGIKVNVKFAKEGIAEKLAQEGEYSPADVILTSEFSRLFELTEKGLTQPLDSKVIEENIPAQYRDSGDEWFALTQRTRSVYSSRDRLGKLGDDFDYMDLAKPEFKGKICTRSGKHPYNIALVASIIANHGEAEAKAWLEGVKANLARKPQGNDRDQVRAIKEGLCDVSLGNSYYLGAMLNDQEQKSWAEAVYINFPGQNVQGTHVNVSGMAMAKYSPNRENAQKLMEFLTGETAQKMYAEVNYEYPVKPGVQRSALVESWGEFKADSLPLEKIADNNAAAIKLIDEVKFDL | not soluble
MAHHHHHHVDDDDKMFSTQVNSSLTSPTGRGSMAAPSLHPSLGPGIGSPGQLHSPISTLSSPINGMGPPFSVISSPMGPHSMSVPTTPTLGFSTGSPQLSSPMNPVSSSEDIKPPLGLNGVLKVPAHPSGNMASFTKHICAICGDRSSGKHYGVYSCEGCKGFFKRTVRKDLTYTCRDNKDCLIDKRQRNRCQYCRYQKCLAMGMKREAVQEERQRGKDRNENEVESTSSANEDMPVERILEAELAVEPKTETYVEANMGLNPSSPNDPVTNICQAADKQLFTLVEWAKRIPHFSELPLDDQVILLRAGWNELLIASFSHRSIAVKDGILLATGLHVHRNSAHSAGVGAIFDRVLTELVSKMRDMQMDKTELGCLRAIVLFNPDSKGLSNPAEVEALREKVYASLEAYCKHKYPEQPGRFAKLLLRLPALRSIGLKCLEHLFFFKLIGDTPIDTFLMEMLEAPHQMT | soluble
MSLTRCVLEGMKTKHALRHHMKLHKGIKEYECKECHRRFAQKVNMLKHCKRHTGIKDFMCELCGKTFSERNTMETHKLIHTVGKQWTCSVCDKKYVTEYMLQKHVQLTHDKVEAQSCQLCGTKVSTRASMSRHMRRKHPEVLAVRIDEGHHHHHH | not soluble
MKIDILDKGFVELVDVMGNDLSAVRAARVSFDMGLKDEERDRHLIEYLMKHGHETPFEHIVFTFHVKAPIFVARQWFRHRIASYNELSGRYSKLSYEFYIPSPERLEGYKTTIPPERVTEKISEIVDKAYRTYLELIESGVPREVARIVLPLNLYTRFFWTVNARSLMNFLNLRADSHAQWEIQQYALAIARIFKEKCPWTFEAFLKYAYKGDILKEVQV | not soluble
MAHHHHHHMFYTGINEPRPTAMNFSFDGLHFVSAHTDDAVRFIDVGNMTNTDVIICDAFGVHNVRYTHSSSVVCVAPRFHLDGHLHLLNTETSQFFGEMAYLNDAESEMLPVANTPVYSTLAQCPATDVIGAVVVAKGRLALFHPLISGCIAATPERSIVGSRACVQFSRDGHRIAIGDDHRIVLLDRRSFFGAPLAVLENKHVFTTSTSLTRCKGLEFSADANRLLLTSSSGEVVVYDWLRGETVANYFHGDARRHFVGSADAIGAQHVFPYQSASPILQLTSSMTGGRHLLVYAGCPSNSAASTRQGRLLYELQSKDSDVPVAIAVNPRLQLAATAARSITWWAFHNSVVEAYATLTEAGMTAAD | not soluble
MISVNDFRTGLTISVDNALWQVLDFQHVKPGKGAAFVRSKLRNLRTGSVQEKTFRAGEKVEKAHIENRRMQYLYASGEAHVFMDNGTYEQIELGEKQIERELKFLKENMEVAIMTYQGEVLGVELPNTVELQVTETEPGIKGDTASNVTKPATLETGLVVQVPIFINEGEMLIINTGEGKYVSRA | not soluble
MSLAQIVTSTKSCTVNPLRMSQPLGAALAFMGLRNCMPLLHGSQGCTSFGLVLFVRHFRESIPLQTTAMSEVATVLGGFENVEQAIVNIVGRTKPDVIGICTTGVTEIKGDDLDGYIKMVRANHPELANVALVPVSTPDFKGAFEDGFAATVTRIVETLVETPAEGAAPDADRINVLAGSHLTPGDIDELRDIIEAFGLVPTFLPDISGSLDGHVPDDFTPTTHGGVSVAEVVAMGGAGHTLAFGEHMRKAAAALEAKAGVPFTLLSRVTGLAAADELMATLAKISGRPVPPKYRRQRSQLVDAMLDGHFYFGGKSVAIGAEPDMLLNIGGWLADMGCTVSAAVTTTTSPSLAQVPSDEVLIGDLEDLERRAEDCDLLVTHSHGRQAAERLSVPLFRMGLPMFDRLGAVHQVAVGYRGTRDLIFAIGNLFIANIKEPDVNSWRSASACPDQTDAEGHHHHHH | soluble
MTLHELLEKPVWKMTGEELLFLAQQGSTQQEGDTQDKAPAKEERHFVYGLSGLARLFGCSLPTANRIKQSGKIDRAITQIGRKIIIDADLALELAGRKVGGRR | not soluble
